Measurements taken from the RNAGym collection of RNA variant scans (doi:10.7554/elife.80360).

B1: CPEB3 Ribozyme (parent)
chain: GGGGGCCACAGCAGAAGCGUUCACGUCGCGGCCCCUGUCAGAUUCUGGUGAAUCUGCGAAUUCUGCUGU

Variants of: B1
Test: self-cleavage, relative activity (ratio to wild type); higher = more cleavage; co-transcriptional

Variant | self-cleavage
C9A G41U | 0.955
C9A G47C | 1
C9A G48A | 1.01
C9A G50A | 1.02
C9A G50C | 1.03
C9A G50U | 0.999
C9A G56C | 0.921
C9A G56U | 0.98
C9A G58C | 1.04
C9A G58U | 1.04
C9A G65A | 0.955
C9A G65U | 0.844
C9A U20C | 0.197
C9A U21A | 1.01
C9A U26G | 0.983
C9A U36A | 0.315
C9A U38A | 0.989
C9A U38G | 0.152
C9A U43C | 1.03
C9A U44G | 1.01
C9A U46G | 1.04
C9A U49A | 1.03
C9A U49G | 1.04
C9A U53G | 1

Variant | self-cleavage
C9A U55C | 0.982
C9A U55G | 0.874
C9A U62C | 0.931
C9A U62G | 0.943
C9A U67A | 1.03
C9A U69A | 1.06
C9G | 1.01
C9G A13U | 0.837
C9G A15G | 0.988
C9G A15U | 0.911
C9G A16C | 0.548
C9G A23C | 0.993
C9G A40C | 0.715
C9G A40U | 0.827
C9G A51C | 0.674
C9G A52C | 0.985
C9G A52U | 1.04
C9G A59C | 0.896
C9G A60G | 0.952
C9G C18U | 0.935
C9G C22A | 0.189
C9G C24G | 0.608
C9G C27A | 0.754
C9G C27G | 0.246

Variant | self-cleavage
C9G C33A | 1.03
C9G C34A | 0.953
C9G C34U | 1.01
C9G C35A | 0.267
C9G C45A | 1.01
C9G C45U | 0.998
C9G C54G | 0.926
C9G C57U | 0.356
C9G C63G | 0.799
C9G C66A | 0.831
C9G G11C | 0.721
C9G G11U | 0.922
C9G G14A | 0.783
C9G G17A | 0.66
C9G G17U | 0.68
C9G G19C | 0.133
C9G G19U | 0.643
C9G G28A | 0.264
C9G G28C | 0.149
C9G G30A | 0.975
C9G G30C | 0.948
C9G G30U | 0.759
C9G G31A | 0.936
C9G G37A | 0.371

Variant | self-cleavage
C9G G37C | 0.289
C9G G41A | 0.872
C9G G47A | 1.05
C9G G47U | 1.04
C9G G48U | 1.01
C9G G50A | 1.01
C9G G50U | 1.02
C9G G56A | 1.01
C9G G56C | 0.924
C9G G56U | 0.97
C9G G58A | 1.01
C9G U20C | 0.254
C9G U36A | 0.256
C9G U38C | 0.997
C9G U44G | 0.96
C9G U46C | 0.937
C9G U46G | 1
C9G U49A | 1
C9G U49C | 1.01
C9G U49G | 0.954
C9G U53A | 0.98
C9G U55A | 0.929
C9G U61G | 0.958
C9G U64G | 0.936

Variant | self-cleavage
C9G U67A | 0.959
C9G U69C | 1.07
C9U | 1.01
C9U A13G | 1.04
C9U A15G | 1.05
C9U A15U | 0.931
C9U A16G | 0.956
C9U A16U | 0.864
C9U A40C | 0.841
C9U A51U | 1
C9U A52G | 0.673
C9U A59C | 0.877
C9U A59U | 0.888
C9U A60U | 0.538
C9U C12A | 0.785
C9U C12G | 0.976
C9U C12U | 1.01
C9U C22A | 0.226
C9U C22G | 0.21
C9U C27G | 0.203
C9U C29U | 0.874
C9U C32U | 1.02
C9U C33G | 0.974
C9U C34U | 1.01

Variant | self-cleavage
C9U C39U | 0.935
C9U C45G | 1.07
C9U C54U | 0.988
C9U C57G | 0.334
C9U C66G | 0.921
C9U G11U | 0.945
C9U G14C | 0.747
C9U G14U | 0.898
C9U G17C | 0.32
C9U G17U | 0.832
C9U G19C | 0.143
C9U G25A | 0.306
C9U G28U | 0.169
C9U G30A | 0.972
C9U G30C | 0.981
C9U G37C | 0.224
C9U G37U | 0.432
C9U G41C | 0.949
C9U G41U | 0.974
C9U G47C | 1.06
C9U G47U | 1.02
C9U G48C | 1.02
C9U G50A | 1.02
C9U G56U | 0.971

Variant | self-cleavage
C9U G58A | 1.03
C9U G58U | 1.02
C9U G65A | 0.965
C9U G68C | 1.03
C9U U20G | 0.17
C9U U21A | 0.932
C9U U21G | 0.801
C9U U26A | 0.929
C9U U26G | 0.942
C9U U36A | 0.312
C9U U36C | 1.02
C9U U43G | 0.967
C9U U44G | 1.06
C9U U53C | 0.931
C9U U61C | 0.866
C9U U62A | 0.997
C9U U62C | 0.966
C9U U69C | 1.07
A10C A23G | 0.94
A10C A40G | 0.976
A10C A42C | 0.961
A10C A42G | 0.896
A10C A52C | 0.986
